According to patent US20200024360A1 (Janssen / Centocor, published 2020):
Changes are numbered by the printed parent chain. Names may count otherwise.

Key:
[1] = target: T1, human CD3ε on primary human T cells (human, UniProt P07766 23-207); experiment: FACS, primary human T cells
T1 construct: whole, on cells; Part of the TCR-CD3 complex on the cells; also called cell-surface CD3ε; CD3E

[2] = target: T2, human PSMA (prostate specific membrane antigen), full length (human, UniProt Q04609 1-750); experiment: flow cytometry, bispecific antibody titrated on human PSMA HEK cells, anti-human kappa light chain PE
T2 construct: On LNCaP or C4-2B cells (endogenous) or transduced HEK293F cells; also called FOLH1_HUMAN; hPSMA
T2 sequence (Q04609 whole entry): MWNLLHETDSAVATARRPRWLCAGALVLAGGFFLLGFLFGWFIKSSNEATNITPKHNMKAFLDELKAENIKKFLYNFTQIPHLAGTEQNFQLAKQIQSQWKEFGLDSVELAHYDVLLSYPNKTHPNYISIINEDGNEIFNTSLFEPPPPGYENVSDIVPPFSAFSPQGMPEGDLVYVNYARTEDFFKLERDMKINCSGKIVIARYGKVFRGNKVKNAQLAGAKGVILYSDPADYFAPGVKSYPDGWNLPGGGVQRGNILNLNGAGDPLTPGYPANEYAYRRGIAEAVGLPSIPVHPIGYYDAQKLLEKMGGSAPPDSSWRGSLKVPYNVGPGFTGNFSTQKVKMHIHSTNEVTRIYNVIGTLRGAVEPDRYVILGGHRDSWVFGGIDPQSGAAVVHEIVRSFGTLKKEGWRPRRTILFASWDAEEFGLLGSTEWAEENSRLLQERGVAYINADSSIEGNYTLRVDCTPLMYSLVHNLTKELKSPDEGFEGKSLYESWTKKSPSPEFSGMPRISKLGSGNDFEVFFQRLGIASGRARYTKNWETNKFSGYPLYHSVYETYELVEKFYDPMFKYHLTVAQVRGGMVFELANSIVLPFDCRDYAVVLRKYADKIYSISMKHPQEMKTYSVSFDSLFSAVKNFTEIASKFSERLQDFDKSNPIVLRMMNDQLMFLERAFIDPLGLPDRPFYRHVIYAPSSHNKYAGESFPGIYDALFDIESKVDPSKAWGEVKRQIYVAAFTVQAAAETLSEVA
Procedure: (§1) PSMA×CD3 bispecific antibodies were tested for binding to PSMA positive cell lines LNCAP, human PSMA-HEK, Chimpanzee-PSMA-HEK and Cynomolgous monkey PSMA-HEK. To assess the binding capabilities of the PSMA bispecific antibodies, the cell-binding assay was utilized (described previously). Briefly, PSMA expressing tumor cells are bound by bispecific antibodies at known concentrations and the bound antibody is detected by an anti-human kappa light chain PE conjugated detection reagent (Invitrogen). The Mean Fluorescents Intensity (MFI) is the measure of bound bispecific antibody. The MFI is converted to a relative EC₅₀. EC₅₀ is a commonly used dose-response curve, where the half maximal effective concentration or the EC₅₀ point is defined as the inflection point of the curve. EC₅₀ s were determined by measuring cell bound bispecific and known concentrations. […] The dose response curves were then diluted down to that of background or no bispecific binding. The inflection point of this curve reflects the EC₅₀ point. The calculated EC₅₀ is determined by taking the ug/ml amount of bispecific antibody at the EC₅₀ point and converting it to a molarity value based on the MW of the bispecific antibody. Bispecific antibodies were normalized for protein concentration and then incubated with the same number of cells expressing either human or cyno PSMA. […]

[3] = target: T2, human PSMA (prostate specific membrane …); experiment: flow cytometry, bispecific antibody titrated on LNCaP cells (human PSMA), anti-human kappa light chain PE
Procedure: as §1

[4] = target: T2, human PSMA (prostate specific membrane …); experiment: as above; remark: listed apart in the source
Procedure: PSMA×CD3 bispecific antibodies were tested for binding to PSMA positive cell lines LNCAP, human PSMA-HEK, Chimpanzee-PSMA-HEK and Cynomolgous monkey PSMA-HEK. To assess the binding capabilities of the PSMA bispecific antibodies, the cell-binding assay was utilized (described previously). Briefly, PSMA expressing tumor cells are bound by bispecific antibodies at known concentrations and the bound antibody is detected by an anti-human kappa light chain PE conjugated detection reagent (Invitrogen). The Mean Fluorescents Intensity (MFI) is the measure of bound bispecific antibody. The MFI is converted to a relative EC₅₀. EC₅₀ is a commonly used dose-response curve, where the half maximal effective concentration or the EC₅₀ point is defined as the inflection point of the curve. EC₅₀ s were determined by measuring cell bound bispecific and known concentrations. […] The dose response curves were then diluted down to that of background or no bispecific binding. The inflection point of this curve reflects the EC₅₀ point. The calculated EC₅₀ is determined by taking the ug/ml amount of bispecific antibody at the EC₅₀ point and converting it to a molarity value based on the MW of the bispecific antibody. Bispecific antibodies were normalized for protein concentration and then incubated with the same number of cells expressing either human or cyno PSMA. The MFI at each concentration was collected by flow cytometry and plotted as a function of concentration. Data was transformed via log 10 and then plotted. Nonlinear regression of binding curves was done to determine EC₅₀ s. These relative values were used for ranking PSMA binding to target cells.

[5] = target: T3, recombinant human PSMA extracellular domain (ECD) protein (human, UniProt Q04609 44-750); experiment: SPR ProteOn
T3 construct: also called human PSMA ECD

[6] = target: T4, recombinant chimpanzee PSMA extracellular domain (ECD) protein (Pan troglodytes, UniProt Q04609 44-750 (human entry)); experiment: SPR ProteOn
T4 construct: also called Chimp PSMA ECD; PSMG8
T4 chain: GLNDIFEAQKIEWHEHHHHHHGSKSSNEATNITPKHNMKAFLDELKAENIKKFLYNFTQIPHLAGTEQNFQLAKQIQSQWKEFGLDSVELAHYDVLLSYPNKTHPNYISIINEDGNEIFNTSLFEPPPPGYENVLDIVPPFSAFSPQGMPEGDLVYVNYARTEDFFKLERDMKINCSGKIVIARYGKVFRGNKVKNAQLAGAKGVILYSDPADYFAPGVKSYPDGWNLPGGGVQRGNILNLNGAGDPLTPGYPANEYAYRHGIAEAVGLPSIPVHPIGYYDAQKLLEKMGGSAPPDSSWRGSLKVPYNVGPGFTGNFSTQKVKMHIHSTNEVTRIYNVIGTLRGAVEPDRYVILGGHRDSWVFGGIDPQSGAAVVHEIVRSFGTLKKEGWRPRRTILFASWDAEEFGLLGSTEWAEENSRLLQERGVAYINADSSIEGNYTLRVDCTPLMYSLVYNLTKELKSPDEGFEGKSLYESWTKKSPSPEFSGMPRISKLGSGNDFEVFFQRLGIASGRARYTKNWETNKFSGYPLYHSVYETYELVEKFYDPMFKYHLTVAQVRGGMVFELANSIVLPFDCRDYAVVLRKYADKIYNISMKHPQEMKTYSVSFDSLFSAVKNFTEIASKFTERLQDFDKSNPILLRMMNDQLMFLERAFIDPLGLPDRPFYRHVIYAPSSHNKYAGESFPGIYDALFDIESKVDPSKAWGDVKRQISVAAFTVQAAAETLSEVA

[7] = target: T5, recombinant cynomolgous monkey PSMA extracellular domain (ECD) protein (Macaca fascicularis, UniProt Q04609 48-750 (human entry), biotin on the Avi tag); experiment: SPR ProteOn
T5 construct: also called cyno PSMA ECD; PSMG1
T5 chain: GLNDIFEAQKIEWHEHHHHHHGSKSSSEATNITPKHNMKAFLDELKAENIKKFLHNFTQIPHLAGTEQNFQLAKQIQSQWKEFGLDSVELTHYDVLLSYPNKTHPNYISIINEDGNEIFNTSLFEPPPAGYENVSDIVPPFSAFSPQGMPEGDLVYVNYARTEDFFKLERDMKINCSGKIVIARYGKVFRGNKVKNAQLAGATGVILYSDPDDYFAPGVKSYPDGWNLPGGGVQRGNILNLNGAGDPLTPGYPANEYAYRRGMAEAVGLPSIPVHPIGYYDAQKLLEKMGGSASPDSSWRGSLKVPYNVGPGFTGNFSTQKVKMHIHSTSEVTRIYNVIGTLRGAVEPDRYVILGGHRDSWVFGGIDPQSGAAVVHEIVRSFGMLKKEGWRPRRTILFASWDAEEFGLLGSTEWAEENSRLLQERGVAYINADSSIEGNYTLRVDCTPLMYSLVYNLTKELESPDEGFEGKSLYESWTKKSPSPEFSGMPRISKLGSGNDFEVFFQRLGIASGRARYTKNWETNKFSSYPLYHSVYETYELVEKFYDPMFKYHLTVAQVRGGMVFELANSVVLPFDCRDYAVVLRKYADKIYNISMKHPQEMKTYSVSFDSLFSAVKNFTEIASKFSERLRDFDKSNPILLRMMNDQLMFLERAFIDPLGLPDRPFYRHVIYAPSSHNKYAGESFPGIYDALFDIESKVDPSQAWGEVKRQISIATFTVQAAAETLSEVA

T1 sequence (P07766 23-207): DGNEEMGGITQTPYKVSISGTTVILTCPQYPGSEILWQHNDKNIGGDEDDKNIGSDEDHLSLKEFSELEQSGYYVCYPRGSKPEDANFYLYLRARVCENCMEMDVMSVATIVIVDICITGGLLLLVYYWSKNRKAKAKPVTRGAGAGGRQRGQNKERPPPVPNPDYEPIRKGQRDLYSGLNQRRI

B1: CD3B144 (antibody, V domains shown)
VH: EVQLVESGGGLVQPGGSLRLSCAASGFTFNTYAMNWVRQAPGKGLEWVARIRSKYNNYATYYAASVKGRFTISRDDSKNSLYLQMNSLKTEDTAVYYCARHGNFGNSYVSWFAYWGQGTLVTVSS
VL: QSVLTQPPSVSAAPGQKVTISCRSSTGAVTTSNYANWVQQLPGTAPKGLIGGTNKRAPGIPDRFSGSKSGTSATLGITGLQTGDEADYYCALWYSNLWVFGGGTKLTVL
notes: also called CD3H141/CD3L64
binding result [1]: no binding (tested: 10 µg/ml (normalised))

B2: CD3B152 (antibody, V domains shown)
VH: B1 VH with V5L, A64D, D76N, S80T, K89R, T90A, A99V, R100K
VL: B1 VL
notes: also called CD3H143/CD3L64
binding result [1]: no binding (tested: 10 µg/ml (normalised))

B3: PS3B7 (M59) (bispecific antibody, human IgG4 S228P, kappa, lambda, F234A L235A)
heavy chain, PSMA arm (PSMB87, Fab PSMB58): not shown
light chain, PSMA arm (PSMB87, Fab PSMB58): not shown
heavy chain, CD3 arm (CD3B217): EVQLLESGGGLVQPGGSLRLSCAASGFTFNTYAMNWVRQAPGKGLEWVARIRSKYNNYATYYADSVKGRFTISRDNSKNTLYLQMNSLRAEDTAVYYCVKHGNFGNSYVSWFAYWGQGTLVTVSSASTKGPSVFPLAPCSRSTSESTAALGCLVKDYFPEPVTVSWNSGALTSGVHTFPAVLQSSGLYSLSSVVTVPSSSLGTKTYTCNVDHKPSNTKVDKRVESKYGPPCPPCPAPEAAGGPSVFLFPPKPKDTLMISRTPEVTCVVVDVSQEDPEVQFNWYVDGVEVHNAKTKPREEQFNSTYRVVSVLTVLHQDWLNGKEYKCKVSNKGLPSSIEKTISKAKGQPREPQVYTLPPSQEEMTKNQVSLTCLVKGFYPSDIAVEWESNGQPENNYKTTPPVLDSDGSFLLYSKLTVDKSRWQEGNVFSCSVMHEALHNHYTQKSLSLSLGK
light chain, CD3 arm (CD3B217): QAVVTQEPSLTVSPGGTVTLTCRSSTGAVTTSNYANWVQQKPGQAPRGLIGGTNKRAPGTPARFSGSLLGGKAALTLSGAQPEDEAEYYCALWYSNLWVFGGGTKLTVLGQPKAAPSVTLFPPSSEELQANKATLVCLISDFYPGAVTVAWKADSSPVKAGVETTTPSKQSNNKYAASSYLSLTPEQWKSHRSYSCQVTHEGSTVEKTVAPTECS
notes: also called PSMB87 x CD3B217
EC50 (read off the curve) [2]: ~1 µg/mL
EC50 (read off the curve) [3]: ~1 µg/mL
EC50 (read off the curve) [4]: ~1 µg/mL

B4: PS3B12 (M87) (bispecific antibody, human IgG4 S228P, kappa, lambda, F234A L235A)
heavy chain, PSMA arm (PSMB130): not shown
light chain, PSMA arm (PSMB130): not shown
heavy chain, CD3 arm (CD3B217): B3 heavy chain, CD3 arm (CD3B217)
light chain, CD3 arm (CD3B217): B3 light chain, CD3 arm (CD3B217)
notes: also called PSMB130 x CD3B217
EC50 (read off the curve) [3]: ~1 µg/mL

B5: PSMB130 (antibody, human IgG4 S228P, kappa, F234A L235A, V domains shown)
VH: QVQLVQSGAEVKKPGSSVKVSCKASGGTFKSYDISWVRQAPGQGLEWMGGIIPIEGTANYAQKFQGRVTITADESTSTAYMELSSLRSEDTAVYYCARDYPAGYGFDYWGQGTLVTVSS
VL: not shown
notes: IgG4 with S228P, F234A, L235A; also called mAb of Fab PSMB86
Kd [5]: 29.6 nM
Kd [6]: 31.7 nM

B6: PSMB123 (antibody, human IgG4 S228P, kappa, F234A L235A, V domains shown)
VH: EVQLVQSGAEVKKPGESLKISCKGSGYSFTSYWIGWVRQMPGKGLEWMGIIYPGDSDTRYSPSFQGQVTISADKSISTAYLQWSSLKASDTAMYYCARGLPIWYLDYWGQGTLVTVSS
VL: EIVLTQSPATLSLSPGERATLSCRASQSVASDLAWYQQKPGQAPRLLIYFASNRATGIPARFSGSGSGTDFTLTISSLEPEDFAVYYCQQSITWPFTFGQGTKVEIKR
notes: IgG4 with S228P, F234A, L235A; also called mAb of Fab PSMB55
Kd [5]: 9.03 nM
Kd [6]: 14.3 nM
Kd [7]: 66.7 nM

B7: PSMB127 (antibody, human IgG4 S228P, kappa, F234A L235A, V domains shown)
VH: EVQLLESGGGLVQPGGSLRLSCAASGFTFKSDAMHWVRQAPGKGLEWVSEISGSGGYTNYADSVKGRFTISRDNSKNTLYLQMNSLRAEDTAVYYCARDSYDSSLYVGDYFDYWGQGTLVTVSS
VL: B6 VL with A30S, D32Y, F50D, S91R, I92S, T93N, F96L
notes: IgG4 with S228P, F234A, L235A; also called mAb of Fab PSMB83
Kd [5]: 12 nM
Kd [6]: 12.8 nM
Kd [7]: 6.68 nM
